Assay results from paper doi:10.1101/2025.07.04.663224.

Tests used:
[1] = target: SmGdpP74 (cytosolic region of Streptococcus mutans GdpP, residues 74-654) (Streptococcus mutans strain NCTC10449); test: AUC
[2] = target: SmGdpP74 (cytosolic region of Streptococcus mutans GdpP, residues 74-654) (Streptococcus mutans strain NCTC10449); test: cryo-EM structure
[3] = target: SmGdpP74 (cytosolic region of Streptococcus mutans GdpP, residues 74-654) (Streptococcus mutans strain NCTC10449); test: SEC
[4] = target: SmGdpP74 (cytosolic region of Streptococcus mutans GdpP, residues 74-654) (Streptococcus mutans strain NCTC10449); test: cryo-EM structure; remark: listed apart in the source
[5] = target: SmGdpP74 (cytosolic region of Streptococcus mutans GdpP, residues 74-654) (Streptococcus mutans strain NCTC10449); test: cryo-EM structure; remark: listed apart in the source

Measured: stoichiometry N

SmGdpP74 (cytosolic region of Streptococcus mutans GdpP, residues 74-654) (domain or fragment)
4: all assays above
